Test results from the nanobody polyreactivity screen of Harvey et al. (2022).

Test: yeast display, Sf9 membrane polyspecificity reagent, FACS + sequencing; frameworks hold sequencing errors
Method in brief: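 Polyreactivity labels are assigned by the sorting gate from which each nanobody was recovered. The gates were low and high (top ~1%), set on anti-HA fluorescence for expression and streptavidin fluorescence for reagent binding. Before sorting, galactose-induced (36–48 hours) yeast display cells were stained for 1 hour at 4 °C with 10% biotinylated, detergent-solubilized Sf9 membrane reagent.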

Row | Sequence | polyreactivity (PSR sort gate)
1 | QVQLVESGGGLVQAGGSLRLSCAASGRILHRYVMGWYIQAPGKERELVAAISSGGSTTYADSVKGRFTISRDNAKNTVYLQIYSLKPEDTAVYYCAKYSFWSTSRMDYWGQGTQVTVSS | low polyreactivity
2 | QVQLVESGGGLVQAGGSLRLSCAASGSTFTPYAMGWYRQAPGKERELVAAITWRGGSTYYADSVKGRFTISRDNAKNTVYLQMNSLKPEDTAVYYCAAEDYLYFFYAYGYWGQGTQVTVSS | high polyreactivity
3 | QVQLVESGGGLVQAGGSLRLSCAASGRIIYVNAMGWYRQAPGKERELVAAISSRGGTTYYADSVKGRFTISRDNAKNTVYLQMNSLKPEDTAVYYCNAGRVRHGNDYWGQGTQVTVSS | high polyreactivity
4 | QVQLVESGGGLVQAGGSLRLSCAASGLIFRYYAMGWYRQAPGKERELVASISWHGGSTNYADSVKGRFTISRDNAKNTVYLQMNSLKPEDTAVYYCAADAWVATTILHDYWGQGTQVTVSS | high polyreactivity
5 | QVQLVESGGGLVQAGGSLRLSCAASGRIFGVYAMGWYRQAPGKERELVAAIYSGSTTYYADSVKGRFTISRDNAKNTVYVQMNSLKPEDTAVYYCAAVSRDDNYQDYYSWGQGTQVTGSS | low polyreactivity
6 | QVQLVESGGGLVQAGGSLRLSCAASGFIFYRNAMGWYRQAPGKERELVAAISVDGSTYYADSVKGRFTISRDNAKNTVYLQMNSQKPEDTAVYYCAAEYYSSYYQYVIYGYWGQGTQVTVSS | low polyreactivity
7 | QVQLVESGGGLVQAGGSLRLSCAASGIIFSRNVMGWYRPAPGKERELVAVISGSGGSTYYADSVKGRFTISRDNAKNTVYLQMNSLKPEDSAVYYCAASYEYLWGYDYEYWGQGTQVTVSS | high polyreactivity
8 | QDQLVESAGGLVQAGGSLRLSCAASGSTSQSNAMGWYREAPGKDRELVAAISWSGTSTYYADSVKGRFTISRDNAKNTVYLQMNRLKPEDTAGYYCAADYIFEYDYWGQGTQVTVSS | low polyreactivity
9 | QVQLVESGGGLVQAGGSLRLSCAASGSNFLTYAMGRYRQAPGKEREFVAAISTSGVSTYYADSVKGRFTISRDNAKNTVYLQMNSLKPEDTAVYFCAAVYDLGYYGPIWAIVLDDYWGQGTQVTVSS | low polyreactivity
10 | QFQLVESGGGLDQAGGSLRLSCAASGFTFQYYAMGWYRQAPGKERELVAAITRGDSTNYADSVKGRFTISRDNAKNTVYLQMNSLKPEDTAVYYCAAGSAPSYWGGWYYERDYWGQGTQVTVSS | low polyreactivity
11 | QVQLVESGGGLVQAGGTLRLSCDASGRTFGYNAMGWYRQAPGKAREFDAAITWSGGSTYYADSVKGRFTISRDNAKNTVYLQMNSLKPEDTAVYYCAADLGRPLHGVAYGYWGQGTQVTVSS | low polyreactivity
12 | QVQLVESGGGLVQAGGSLRLSCAASGSTFYNYVMGWYRQAPGKERELVAAINWSGCRTYYADSVKGRFTISRDNAKNTVYLQMNSLKPEDTAVYYCAAGYTLPWYKGFDYWGQGTQVTVSS | high polyreactivity
13 | QVHLVESGGGLGQAGGSLRLSGAASGFIFGDYAMGWYRQAPGKERELVADINWTGGSTYYADSVKGRFTISRDNANNTVYLQMKSLKPEDTEVYYCDKDDYAFLITWVDYWGQGTQVTVSS | low polyreactivity
14 | QVQLVESGGGLVQAGGTLRLSCADSGLTFAKYAMGWYRQAPGKERQLVAAISRSGGSTYYADSVKGRFTISRDNAKNTVYLQINSLKPEDTARFYCPKSSGTLWITKYDYWGQGTQVTVSS | low polyreactivity
15 | QVQLVESGGGLVQAGGSLRLSCAASGRIFDSNALGWYRQAPGKERELVAAISYDGGSTYYADSVKGRFTISRDNAKNTVYLQMNSLKPEDTAVYYCAADDGWYYYYGYDYWGQGTQVTVSS | low polyreactivity
16 | QVQLVESGGGLVQAGGSLRLSCAASGIIFSDNAMGWYRQAPGKERELVAAIDWSGGSTYYADSVKGRFTISRDNAKNTVYLQMNSLKPEDTAVYYSAAEYRDYVPVNDTGDYWGQGTQVTVSS | low polyreactivity
17 | QVQLVESGGGLVQAGGSLRLSCAASGFTFYLYTMGWYRQAPGKERELVAAINYSGGRTYYADSVKGRFTISRDNAKNTVYLQMNSLKPEDTAVYYCYPRVKNLQAYDYWGQGTQVTVSS | high polyreactivity
18 | QVQLVESGGGLVQAGGSLRLSCAASGFIFLGNAMGWYRQAPGKERELVAAISSGGSTYADSVKGRFTISRDNAKNTVYLQMNSLKPEDTAVYYCNTEDYTQYEPGYYPPNYYWGQGTQVTVSS | low polyreactivity
19 | QVQLVESGGGLVQAGGSLRLSCAASGRTFTAYAMGWYRQAPGKERELVARITSVDSTNYADSVKGRFTISRDNAKNTVYLHMYSLKPDDTAVYYCNATFGYPFVDYDDYWGQVTQVTVSS | low polyreactivity
20 | QVQLVESGGGLVQAGGSLRLSCAASGIIFYYYAMGWYRQAPGKESELVADITYSGGSTYYADSVKGRFTISRDKAKNTVYLQMNSLKPEDTAVYYCAARVTVSHWPYYYDSSDYGGQGTQVTVSS | low polyreactivity
21 | QVQLVESGGGLVQAGGSLRLSCAASGFTYSTNAMGWYRQAPGTERELVAAISGSGGSTYYADSVKGRFTISRDNAKNTVYLQMNSLKPEDTAVYYCAARCPYYSWGRYEYYYWGQGTQVTLSS | high polyreactivity
22 | QVQLVESGGGLVQAGGSLRLSCAASGRIIYPNTMGWYRQAPGKERELVAAINRLGGSTYYADSVKGRFTISRDYAKNTVYLQMNSLIPEDTAVYYCAAYTTWTRSGYYDFTSYFWGQGTQVTVSS | high polyreactivity

Row | Sequence | polyreactivity (PSR sort gate)
23 | QVQLVESGGGLVQAGGSLRLSCAASGSILSYNAMGWYRQAPGKERELVATITGTGGSTRYADSVKGRFTISRDNAKNTVYLQMNSLKPEDTAVYYCATAAWWYYRIYHEFGYWGQGTQVTVSS | high polyreactivity
24 | QVQLVESGGGLVQAGGSLRLSCAASGRIFTHNAMGWYRQAPGKERELVAAITWTGGSTYADSVKGRFTISRDNAKKTVYLQMNSLKPEDTAVYYCNARAHRYYLYDVQFGRGHSGGYWGQGTQVTVSS | low polyreactivity
25 | QVQLVESGGGLVQAGGILRLSCAASGFIFDSYAMGWYRQAPGKERELVAAINWNGGRTYYADSVKGRFTISRDNAKNTVYLQMNRLKPEDTAVYYCAKDTDNWDVGGYVYDYDYWGQGTQVTVSS | high polyreactivity
26 | QVQLVESGGGLVQAGGSLRLSCAASGNIFSYYAMGWYRQAPGKERELVAAIYTGGSTYYADSVKGRFTISRDNAKNTVYLQMNSLKPEDTAVYYCAARGLKLRQDYDYWGQGTQVTVSS | low polyreactivity
27 | QVQLVESGGGLVQAGGSLRLSCAASGRIFRLYAMGWYRQAPGKERELGAAISSRGGDTYADSVKGRFTISRDNAKNTVYLQMNSLKPEDTAVYYCNDVIYYPYKSGVWYYEYDYWGQGTKVTVSS | low polyreactivity
28 | QVQLVESGGGLVQAGGSLRLSCAASGFTLVKYVMGWYRQAPGKERELVAAINRSGTSTYYADSVKGRFTISRDNAKYSVYLQMNSLKPEDTAVYYCNADWYRKRNYWGQGTQVTVSS | high polyreactivity
29 | QVQLVESGGGLVQAGVSLRLSCAASGFTFQAYAMGWYRQAPGKERELVAAIRSRGDSTYYADSVKGRFTISRDNSKNTVYLQMNSLKPEDTAVYYCNVLGYSYWGQGTQVTVSS | high polyreactivity
30 | QVQLVESGGGLVQAGGSLRLSCAASGRIFSVNAMGWYRQAPGKERELVASISWSGGSTYYADSVKGRFTISRDNAKNTVYLQMNSLKPEDTAVYYCARGYWVYYPDGDYWGQGTQVTVSS | low polyreactivity
31 | QVQLVESGGGLVQAGGSLRLSCAASGRILGYYAMGGSRQAPGKERELVAAISSGDSTNYADSVKGRFTISRDNAKNTVYLQMNSLKPEDTAVYYCAAKGWIWNPYNYWGQGTQGTVSS | low polyreactivity
32 | QVQLVESGGGLVQAGGSLRLSCAASGSIFWDYAMGWYRQSPGKERELVAAISGSGTSTYYADSVKGRFTISRDNAKNTVYLQMNSLKPEDTAVYYCAARIWTGRGRKLGNGYDYWGQGTQVTVSS | low polyreactivity
33 | QVQLVESGGGLVQAGGSLRLSCAASGFIFNSYAMGGYRQAPGKERELVAAISRRGSSTYYADSVKGRFTISRDNAKNTVYLQMKSLKPEDTAVYYCAKRDLSTSWYLRDYWGQGTQVTVSS | high polyreactivity
34 | QVQLVESGGGLVQAGGSLRLSCAASGFTFYSYAMGWSRQAPGKERELVAAISGGGGSTYYADSVKGRFTISRDNAKNTVYLQMNSLKPEDTAVYYCAKRPAYRGYGLGYYWGQGTQVTVSS | high polyreactivity
35 | QVQLHESGGGLVQAGGSLRLSCAASGTISYAGPMGWYRQAPGKEREFVAGIGVGSNTNYADSVKGRYTIIRDNAKNTVYLQMNSLKPEDTAVDYCAVGGYAPLGRPYWGQGTQVTVSS | low polyreactivity
36 | QVQLVESGGGLVQAGGSLRLSCAASGRTFKRNPMGWYRQAPGKERELVAAISGTGSTNYADSVKGRFTISRDNAKNTVYLQMNSLKPEDSAVYYCNADIYSYRYPYVYWGQGTQVTVSS | low polyreactivity
37 | QVQLVETGGGIVQAGGILRLSCAYSGSIFYLYAMGWYRQAPGKERELVAAISTSGGRTHYADSVKGRITISRDNAKNTVYLQMNSLKPEDTAVYYCAAPAARPDGGYGYWGQGTQVTVSS | high polyreactivity
38 | QVQLVESGGGLVQAGGSLRLSCAASGFTFYVYVMGWYRPAPGKERELVAGISRGGSTYYADSVKGRFTISRDTAKNTVYLQMNSLKPEDTAVYYCNARRAWSSTYGYWGQGTQVTVSS | high polyreactivity
39 | QVQLVESGGGLVQAGGSLRLSCAASGFIFFYYAMGWYRQAPGKERELVAVIDRSGGTTYYADSVKGRFTISRDNAKNTVYFQMNILKPEDTAVYYCNADDFTYPSGWGFIYDYWGQGTQVTVSS | low polyreactivity
40 | QVQLEESGGGLVQAGGILRLSCAASGFTLVYYAMGSYRQAPGKERELVATISGNGGRTYYADSVKGRFTISRDNAKNTDNLQMNSLKPEDTAVYYCAALLYIGSVGYDYWGQGTQVTVSS | low polyreactivity
41 | QVQLVESGGGLVQAGGSLRLSCAASGRIFSRYAMGWYRQAPGKERELVAAIRSNGGRTYYADSVKGRFTISRDNAKNTVYLQMNSLKPEDTAVYYCAAAGGGKVSYRDYDYWGQGTQVTVSS | high polyreactivity
42 | QVQLVESGGGLVQAGGSLRLSSAASGSTFQDYDMRRSRQAPGKERELVAVISGSGGCTYYADSVKGRFTISRDNAKNTVYLQMNSLKPEDTAVYYCATDIKDGRPGDGVYDYGYWGQGTQVTVSS | low polyreactivity
43 | QVQLVESGGGLVQAGGSLRLSCAASGIIFVKNAMGWYRQAPGKERELVAAISRSGARTYYADSVKGRFTISRDNEKNTVYLQMNSLKPEDTAVYYCNVYTRDRGYDYWGHGTQVTVSS | high polyreactivity
